In US20240352438A1, “MEANS AND METHODS FOR DETOXIFYING OCHRATOXIN A” (DSM Austria GmbH, priority 2021, published 2024):

How the values were obtained:
[1] = OTA detoxification activity assay (specific activity, fluorescence reduction ex/em 390/450 nm); assay type: biochemical; conditions: SEQ ID NO: 1 = 100%
Summary of the method: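 Recombinant enzyme preparation with 200 ng/mL OTA in 100 mM sodium phosphate, at pH 6.0 and pH 7.5, 37° C. Degradation followed as the fall in fluorescence at ex/em 390/450 nm. Specific activity taken from the initial linear slope; one unit degrades 1 μmol OTA per min at a starting OTA of […].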

[2] = Enzymatic activity comparison: activity remaining after 65° C. for 10 min at pH 6.0, relative to SEQ ID NO: 1; assay type: physicochemical
Procedure: To compare the temperature behavior and thermostability of selected enzymes to one another, enzyme was incubated at 65° C. for 10 min at pH 6.0. The enzymatic activity remaining after incubation was compared to the remaining activity of the enzyme of SEQ ID NO: 1 after incubation, the latter being set to 100%, see Table 16.

Molecule | Specific OTA detoxification activities in % compared to the enzyme of SEQ ID NO: 1, pH 6.0 [1] | Specific OTA detoxification activities in % compared to the enzyme of SEQ ID NO: 1, pH 7.5 [1] | Enzymatic activity remaining after incubation, compared to SEQ ID NO: 1 (set to 100%) [2]
259 (protein, exemplary polypeptide) MTTRTRILTAFLSLLAANACAADAAPAAPHTVVLRAARMFDGASGKLVDHPQLTIVGNKIVRIAQGDKAEVPAGAEVVDLGDATLLPGFIDAHVHLSGQSSDNWYGDFFDNMMRFPAEQALYGAYYARITLEAGFTSVRDVGSTDWVALGLRNAIDAGKVPGPRMLVSNYAVGSTGGHADQDPIPPHKLPLAGPLQGVCNGPEECRAAVRYQIKYGANVIKFMPSGGVLSLSDPVDAPELSQDEMNAVIGESHAWGRKVAAHAHGDKAAKMAVAAGVDSIEHGSFIEDDTLRAMKAKNVYLVPTISAIADVEAKIGTFPPVIAEKGRAAAAHLRQTFRHAVQIGVPIALGTDAGVGAHGSNAREFRYMVENGLTPAQALLAGTANAARLLGTFDRVGTLEAGKLADVVAVPGNPIADITVTERPLFVMKDGVVVRRDAVR | 56% | 54% | 41%
262 (protein, exemplary polypeptide) MTTRTRILTAFLSLLAANACAADAAPAAPHTVVLRAARMFDGASGKLVDHPQLTIVGNKIVRIAQGDKAEVPAGAEVVDLGDATLLPGFIDAHVHLSVQSSDNWYGDFFDNMMRFPAEQALYGAYYARITLEAGFTSVRDVGSTDWVALGLRNAIDAGKVPGPRMLVSNYAVGSTGGHADQDPIPPHKLPLAGPLQGVCNGPEECRAAVRYQIKYGANVIKFMPSGGVLSLSDPVDAPELSQDEMNAVIGESHAWGRKVAAHAHGDKAAKMAVAAGVDSIEHGSFIEDDTLRAMKAKNVYLVPTISAIAHVEEKIGTFPPVIAEKGRAAAAHLRQTFRHAVQIGVPIALGTDAGVGAHGSNAREFRYMVENGLTPAQALLAGTANAARLLGTFDRVGTLEAGKLADVVAVPGNPIADITVTERPLFVMKDGVVVRRDAVR | 116% | 106% | 40%
260 (protein, exemplary polypeptide) MTTRTRILTAFLSLLAANACAADAAPAAPHTVVLRAARMFDGASGKLVDHPQLTIVGNKIVRIAQGDKAEVPAGAEVVDLGDATLLPGFIDAHVHLSGQSSDNWYGDFFDNMMRFPAEQALYGAYYARITLEAGFTSVRDVGSTDWVALGLRNAIDAGKVPGPRMLVSNYAVGSTGGHADQDPIPPHKLPLAGPLQGVCNGPEECRAAVRYQIKYGANVIKFMPSGGVLSLSDPVDAPELSQDEMNAVIGESHAWGRKVAAHAHGDKAAKMAVAAGVDSIEHGSFIEDDTLRAMKAKNVYLVPTISAIAEVEAKIGTFPPVIAEKGRAAAAHLRQTFRHAVQIGVPIALGTDAGVGAHGSNAREFRYMVENGLTPAQALLAGTANAARLLGTFDRVGTLEAGKLADVVAVPGNPIADITVTERPLFVMKDGVVVRRDAVR | 83% | 81% | 27%
274 (protein, exemplary polypeptide) MTTRTRILTAFLSLLAANACAADAAPAAPHTVVLRAARMFDGASGKLVDHPQLTIVGNKIVRIAQGDKAEVPAGAEVVDLGDATLLPGFIDAHVHLSGQSSDNWYGDFFDNMMRFPAEKALYGAYYARITLEAGFTSVRDVGSTDWVALGLRNAIDAGKVPGPRMLVSNYAVGSTGGHADQDPIPPHKLPLAGPLQGVCNGPEECRAAVRYQIKYGANVIKFMPSGGVLSLSDPVDAPELSQDEMNAVIGESHAWGRKVAAHAHGDKAAKMAVAAGVDSIEHGSFIEDDTLRAMKAKNVYLVPTISAIAHVEEKIGTFPPVIAEKGRAAAAHLRQTFRHAVQIGVPIALGTDAGVGAHGSNAREFRYMVENGLTPAQALLAGTANAARLLGTFDRVGTLEAGKLADVVAVPGNPIADITVTERPLFVMKDGVVVRRDAVR | 100% | 100% | 32%
268 (protein, exemplary polypeptide) MTTRTRILTAFLSLLAANACAADAAPAAPHTVVLRAARMFDGASGKLVDHPQLTIVGNKIVRIAQGDKAEVPAGAEVVDLGDATLLPGFIDAHVHLSGQSSDNWYGDFFDNFMRFPAEQALYGAYYARITLEAGFTSVRDVGSTDWVALGLRNAIDAGKVPGPRMLVSNYAVGSTGGHADQDPIPPHKLPLAGPLQGVCNGPEECRAAVRYQIKYGANVIKFMPSGGVLSLSDPVDAPELSQDEMNAVIGESHAWGRKVAAHAHGDKAAKMAVAAGVDSIEHGSFIEDDTLRAMKAKNVYLVPTISAIAHVEEKIGTFPPVIAEKGRAAAAHLRQTFRHAVQIGVPIALGTDAGVGAHGSNAREFRYMVENGLTPAQALLAGTANAARLLGTFDRVGTLEAGKLADVVAVPGNPIADITVTERPLFVMKDGVVVRRDAVR | 25% | 39% | 28%
273 (protein, exemplary polypeptide) MTTRTRILTAFLSLLAANACAADAAPAAPHTVVLRAARMFDGASGKLVDHPQLTIVGNKIVRIAQGDKAEVPAGAEVVDLGDATLLPGFIDAHVHLSGQSSDNWYGDFFDNMMRFPAEHALYGAYYARITLEAGFTSVRDVGSTDWVALGLRNAIDAGKVPGPRMLVSNYAVGSTGGHADQDPIPPHKLPLAGPLQGVCNGPEECRAAVRYQIKYGANVIKFMPSGGVLSLSDPVDAPELSQDEMNAVIGESHAWGRKVAAHAHGDKAAKMAVAAGVDSIEHGSFIEDDTLRAMKAKNVYLVPTISAIAHVEEKIGTFPPVIAEKGRAAAAHLRQTFRHAVQIGVPIALGTDAGVGAHGSNAREFRYMVENGLTPAQALLAGTANAARLLGTFDRVGTLEAGKLADVVAVPGNPIADITVTERPLFVMKDGVVVRRDAVR | 134% | 76% | 34%
275 (protein, exemplary polypeptide) MTTRTRILTAFLSLLAANACAADAAPAAPHTVVLRAARMFDGASGKLVDHPQLTIVGNKIVRIAQGDKAEVPAGAEVVDLGDATLLPGFIDAHVHLSGQSSDNWYGDFFDNMMRFPAEMALYGAYYARITLEAGFTSVRDVGSTDWVALGLRNAIDAGKVPGPRMLVSNYAVGSTGGHADQDPIPPHKLPLAGPLQGVCNGPEECRAAVRYQIKYGANVIKFMPSGGVLSLSDPVDAPELSQDEMNAVIGESHAWGRKVAAHAHGDKAAKMAVAAGVDSIEHGSFIEDDTLRAMKAKNVYLVPTISAIAHVEEKIGTFPPVIAEKGRAAAAHLRQTFRHAVQIGVPIALGTDAGVGAHGSNAREFRYMVENGLTPAQALLAGTANAARLLGTFDRVGTLEAGKLADVVAVPGNPIADITVTERPLFVMKDGVVVRRDAVR | 71% | 85% | 25%
261 (protein, exemplary polypeptide) MTTRTRILTAFLSLLAANACAADAAPAAPHTVVLRAARMFDGASGKLVDHPQLTIVGNKIVRIAQGDKAEVPAGAEVVDLGDATLLPGFIDAHVHLSSQSSDNWYGDFFDNMMRFPAEQALYGAYYARITLEAGFTSVRDVGSTDWVALGLRNAIDAGKVPGPRMLVSNYAVGSTGGHADQDPIPPHKLPLAGPLQGVCNGPEECRAAVRYQIKYGANVIKFMPSGGVLSLSDPVDAPELSQDEMNAVIGESHAWGRKVAAHAHGDKAAKMAVAAGVDSIEHGSFIEDDTLRAMKAKNVYLVPTISAIAHVEEKIGTFPPVIAEKGRAAAAHLRQTFRHAVQIGVPIALGTDAGVGAHGSNAREFRYMVENGLTPAQALLAGTANAARLLGTFDRVGTLEAGKLADVVAVPGNPIADITVTERPLFVMKDGVVVRRDAVR | 78% | 95% | 60%
272 (protein, exemplary polypeptide) MTTRTRILTAFLSLLAANACAADAAPAAPHTVVLRAARMFDGASGKLVDHPQLTIVGNKIVRIAQGDKAEVPAGAEVVDLGDATLLPGFIDAHVHLSGQSSDNWYGDFFDNMMRFPAEEALYGAYYARITLEAGFTSVRDVGSTDWVALGLRNAIDAGKVPGPRMLVSNYAVGSTGGHADQDPIPPHKLPLAGPLQGVCNGPEECRAAVRYQIKYGANVIKFMPSGGVLSLSDPVDAPELSQDEMNAVIGESHAWGRKVAAHAHGDKAAKMAVAAGVDSIEHGSFIEDDTLRAMKAKNVYLVPTISAIAHVEEKIGTFPPVIAEKGRAAAAHLRQTFRHAVQIGVPIALGTDAGVGAHGSNAREFRYMVENGLTPAQALLAGTANAARLLGTFDRVGTLEAGKLADVVAVPGNPIADITVTERPLFVMKDGVVVRRDAVR | 121% | 86% | 41%
280 (protein, exemplary polypeptide) MTTRTRILTAFLSLLAANACAADAAPAAPHTVVLRAARMFDGASGKLVDHPQLTIVGNKIVRIAQGDKAEVPAGAEVVDLGDATLLPGFIDAHVHLSGQSSDNWYGDFFDNMMRFPAEQALYGAYYARITLEAGFTSVRDVGSTDWVALGLRNAIDAGKVPGPRMLVSNYAVGSTGGHADQDPIPPHKLPLAGPLQGTCNGPEECRAAVRYQIKYGANVIKFMPSGGVLSLSDPVDAPELSQDEMNAVIGESHAWGRKVAAHAHGDKAAKMAVAAGVDSIEHGSFIEDDTLRAMKAKNVYLVPTISAIAHVEEKIGTFPPVIAEKGRAAAAHLRQTFRHAVQIGVPIALGTDAGVGAHGSNAREFRYMVENGLTPAQALLAGTANAARLLGTFDRVGTLEAGKLADVVAVPGNPIADITVTERPLFVMKDGVVVRRDAVR | 70% | 50% | 31%
